Experimental data taken from US20040167074A1, “Therapeutic applications of mFLINT polypeptides” (priority 1998, published 2004).
Several values for one entry are separate records, joined by “and”; a condition that tells them apart may be missing. Identical values can stand only once. Each block holds one molecule with its values, some of them ahead of it.

Legend:
[1] = biological target: FasL expressed by anti-CD3-activated Jurkat cells
[2] = biological target: soluble Fas L (recombinant FasL)
[3] = biological target: FasL expressed by anti-CD3-activated Jurkat cells; remark: listed apart in the source
Jurkat cells [4] = test: anti-CD3 induced Jurkat apoptosis (Annexin V/PI, FACS); format: cell-based; conditions: Example 12; Jurkat + antiCD3 + 10 μM DEVD-cmk
Method: Non-tissue treated 24 well plates (Decton Dickinson, Mansfield, Mass.) were coated with 0.5 ml of 1 ug/ml anti-CD3 (Farmingen) in PBS for 90 min at 37° C. The plate was washed once with PBS.
Cells were incubated overnight at 37° C. incubator and cells were then stained by Annexin V and PI staining. Apotosis was analyzed by flow cytometer (FACS). Cell apoptosis was indicated by positive staining with Annexin V.

LIGHT = LIGHT cell surface binding assay by flow cytometry
Method: To confirm the dot blot binding between LIGHT and mFLINT, 293 cells were transiently transfected with LIGHT expression construct overnight. On the next day, cells were detached and incubated with mFLINT-Flag on ice. […] As a control we used vector transfected cells. To make sure that the binding was specific, a competition assay with 10 fold access of untagged mFLINT was performed.
More particularly, 6 well dishes of cells were transfected as above. Both vector and m-LIGHT expressing cells were provided. Cells were detached from the plates by vigorous pipetting with a P100 Pipettor. Then, in PBS/BSA, 0.1%, cells were exposed to one of the following combinations, set forth in a-d.
a. GST/flag, mFLINT/flag, or HVEM at 20 nM;
b. FLINT/flag at 20 nM+GST/flag or mFLINT or HVEM at 200 nM;
c. FLINT/flag at 20 nM+HVEM+anti-human FAS ligand at 200 n-M;
d. anti-human FAS ligand-biotin at 1 μg/ml
Cells were incubated on ice for 30 minutes and washed with PBS/BSA, 0.1%. Cells then were exposed either to anti-human IgG-biotin, 1 μg/ml (for detection of HVEM), or to M2-biotin, 2 μg/ml (for detection of flag conjugates). Cells were incubated on ice for 30 minutes and washed with PBS/BSA, 0.1%. Thereafter, cells were exposed to streptavidin Alexa 488 (SIGMA) at a 1:1000 dilution. Again, cells were incubated on ice for 30 minutes and washed with PBS/BSA, 0.1 1%. Cells were analyzed using a FACSORT flow cytometer (Decton Dickinson) to determine binding.

Jurkat cells [5] = test: Recombinant FasL induced Jurkat cell apoptosis (Annexin V/PI, FACS); format: cell-based; conditions: Jurkat + inducer alone 200 ng/ml, overnight
Method: One milliliter of 1×10^6 cell/ml was added into each well of 24 well tissue culture plate and treated with following reagents: soluble Fas L (200 ng), Fas L plus 1 ug mFLINT, Fas L plus 1 ug OPG2-Fc, Trail (200 ng), Trail plus 1 ug mFLINT. Cells were incubated overnight at 37° C. and then stained with Annexin V and PI.

FasL = biological target: T1, FasL (Homo sapiens, UniProt P48023); test: BiaCore real-time biomolecular interaction analysis (surface plasmon resonance); format: binding; conditions: immobilized FasL (monomer bound), analyte in solution
T1 construct: purchased Kamiya Biomedical Company
T1 sequence (P48023 130-281 limits assumed): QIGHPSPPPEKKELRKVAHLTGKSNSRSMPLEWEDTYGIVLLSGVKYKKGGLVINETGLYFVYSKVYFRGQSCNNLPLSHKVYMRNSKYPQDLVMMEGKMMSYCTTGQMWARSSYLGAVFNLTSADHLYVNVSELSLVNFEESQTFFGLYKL
Description: FLINT-Fas L binding may be confirmed and specifics of binding determined (e.g., kinetics, specificity, affinity, cooperativity, relative binding pattern, concentration) using real-time biomolecular interaction analysis. This technology confers the ability to study biomolecular interactions in real time, without labeling any of the interactants. In particular, it takes advantage of the optical phenomenon surface plasmon resonance, and detection depends on changes in the mass concentration of macromolecules at the biospecific interface. Interactions are followed in real time, so that kinetic information is readily derived. In many cases, investigations can be performed without prior purification of components.
Measurements are accomplished using a BiaCore 2000 instrument. The instrument, accompanying chips, immobilization and maintenance kits and buffers are obtained from Biacore AB, Rapsgatan 7, S-754 50 Uppsala, Sweden. FasL is obtained from Kamiya Biomedical Company, 910 Industry Drive, Seattle, Wash. 98188, Guanidine Isothiocyanate Solution from GibcoBRL, and mFLINT is prepared as in Examples 8 and 9.
Experiments using immobilized FasL loaded with a solution containing mFLINT. […] This is explained by the fact that FasL is a trimer, yet here FasL monomer was bound. Further experiments utilized bound FLINT with FasL in solution, allowing for trimer formation. […] This observations indicate that FLINT should effectively compete with Fas for FasL binding, which likely explains the therapeutic benefit observed in experiments detailed below.

hFasLigand (Flag-tagged) = biological target: T2, hFasLigand (Flag-tagged) (Homo sapiens, UniProt P48023); test: ELISA: FasLigand binding to adsorbed FLINT and Fas; conditions: 100 ng receptor adsorbed
T2 sequence (P48023 103-281 limits assumed): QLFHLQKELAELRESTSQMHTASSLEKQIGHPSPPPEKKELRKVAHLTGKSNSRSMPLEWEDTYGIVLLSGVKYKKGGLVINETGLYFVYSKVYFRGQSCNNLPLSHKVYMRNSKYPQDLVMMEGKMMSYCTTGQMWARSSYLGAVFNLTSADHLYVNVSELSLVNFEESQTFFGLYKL
Method: FLINT and Fas (100 ng of each) were adsorbed on to an ELISA plate. hFasLigand (Flag-tagged) was added at different concentrations to a maximum concentration of 300 ng down to 0.1 ng on TBST plus a 0.1% solution containing 1 microgram/ml of M2 Abs. After washing of the plate, anti-mouse-Abs-HRP (1:3000 dilution, Bio-Rad) was added to the wells. After washings, visualization enzymatic reaction using ABTS as a substrate was performed.

[6] = system: Mouse T cell hybridoma cells (LTT cells); test: Murine FasL-mediated apoptosis of LTT cells (Annexin V assay); format: cell-based; conditions: test agent 1 μg/ml
Method: (§1) LTT,2,14,11 cells (LTT cells), see Glasebrook, Eur.J.Immunol. 17: 1561-65 (1987), were used in this Annexin V assay. On the first day, a 96 well plate was coated with anti-CD3 (2C11) at a serial dilutions. On the second day, 100,000 LTT cells were added, in 50 μl of medium per well, along with 50 μl of medium to the control wells and 50 μl of medium containing:
Group 1. solubleFas (sFas)(FasFc, mouse), with a final concentration of 1 μg/ml
Group 2. mFLINT (human), with a final concentration of 1 ug/ml
Group 3. anti-FasL (mouse), with a final concentration of 1 ug/ml.
These then were incubated overnight, at 37° C., in 5% CO2;
On the following day (Day 3), the cells were collected from each well, washed and labeled with Annexin V and PI, following Flow cytometry analysis.

[7] = system: Mouse T cell hybridoma cells (LTT cells); test: Murine FasL-mediated apoptosis of LTT cells (MTS cytotoxicity assay); format: cell-based; conditions: test agent 1 μg/ml
Method: as §1
The same steps as in Example 16 were followed on Day 1 and Day 2. On Day 3 20 ul of MTS solution (Promega) was added to the cells which were then incubated at 37° C. for 2 hours. Using a plate reader, the absorbances at 490 nm wavelength were collected.

apoptosis of Jurkat cells, positive staining with Annexin V (FACS) [1]: 45.8
apoptosis of Jurkat cells, Annexin V and PI (FACS) [2]: 70.6
apoptosis of Jurkat cells [3]: 26.2
Molecule: OPG2-Fc (Fc fusion)

Molecule: DEVD-cmk [DEVDcmk, reference compound]
Cell apoptosis (positive staining with Annexin V) (Jurkat cells [4]): 30.80

B1: mFLINT-Flag: FLINT with the Flag sequence attached at the C-terminal end: [FLINT]-DYKDDDDK (protein)
chain: VAETPTYPWRDAETGERLVCAQCPPGTFVQRPCRRDSPTTCGPCPPRHYTQFWNYLERCRYCNVLCGEREEEARACHATHNRACRCRTGFFAHAGFCLEHASCPPGAGVIAPGTPSQNTQCQPCPPGTFSASSSSSEQCQPHRNCTALGLALNVPGSSSHDTLCTSCTGFPLSTRVPGAEECERAVIDFVAFQDISIKRLQRLLQALEAPEGWGPTPRAGRAALQLKLRRRLTELLGAQDGALLVRLLQALRVARMPGLERSVRERFLPVHDYKDDDDK
cell surface binding (flow cytometry peak shift) (LIGHT; LIGHT-transfected 293 cells): peaks shifted only when LIGHT expressing cells were stained with mFLINT-Flag
cell surface binding (flow cytometry peak shift) (LIGHT; vector transfected control cells): no shift in the control cells

B2: TRAIL: TNF ligand TRAIL (RnD Systems) (protein, UniProt P50591 1-281, looked up)
Tumor necrosis factor ligand …: MAMMEVQGGPSLGQTCVLIVIFTVLLQSLCVAVTYVYFTNELKQMQDKYSKSGIACFLKEDDSYWDPNDEESMNSPCWQVKWQLRQLVRKMILRTSEETISTVQEKQQNISPLVRERGPQRVAAHITGTRGRSNTLSSPNSKNEKALGRKINSWESSRSGHSFLSNLHLRNGELVIHEKGFYYIYSQTYFRFQEEIKENTKNDKQMVQYIYKYTSYPDPILLMKSARNSCWSKDAEYGLYSIYQGGIFELKENDRIFVSVTNEHLIDMDHEASFFGAFLVG
Cell apoptosis (Annexin V and PI, FACS) (Jurkat cells [5]): 17.47 and 17.43

Kd (FasL): 162 nM
OD, 405 nM (hFasLigand (Flag-tagged); FasL 0.1 ng): 0
OD, 405 nM (hFasLigand (Flag-tagged); FasL 0.5 ng): 0
OD, 405 nM (hFasLigand (Flag-tagged); FasL 1.0 ng): 0
OD, 405 nM (hFasLigand (Flag-tagged); FasL 5.0 ng): .01
OD, 405 nM (hFasLigand (Flag-tagged); FasL 10 ng): .03
OD, 405 nM (hFasLigand (Flag-tagged); FasL 50 ng): .045
OD, 405 nM (hFasLigand (Flag-tagged); FasL 100 ng): .18
B3: Fas: Fas receptor protein adsorbed on ELISA plate or compared in BiaCore (protein, UniProt P25446 22-169, looked up)
extracellular domain: QGTNSISESLKLRRRVRETDKNCSEGLYQGGPFCCQPCQPGKKKVEDCKMNGGTPTCAPCTEGKEYMDKNHYADKCRRCTLCDEEHGLEVETNCTLTQNTKCKCKPDFYCDSPGCEHCVRCASCEHGTLEPCTATSNTNCRKQSPRNR
modifications: extracellular domain
notes: Fas receptor protein adsorbed on ELISA plate or compared in BiaCore

B4: SFas: solubleFas (sFas)(FasFc, mouse) (protein)
chain: QGTNSISESLKLRRRVRETDKNCSEGLYQGGPFCCQPCQPGKKKVEDCKMNGGTPTCAPCTEGKEYMDKNHYADKCRRCTLCDEEHGLEVETNCTLTQNTKCKCKPDFYCDSPGCEHCVRCASCEHGTLEPCTATSNTNCRKQSPRNR
% Annexin V Positive ([6]; Anti CD3 0): 23.14%
% Annexin V Positive ([6]; Anti CD3 0.11): 41.08%
% Annexin V Positive ([6]; Anti CD3 0.33): 47.28%
% Annexin V Positive ([6]; Anti CD3 1): 56.66%
MTS absorbance at 490 nm ([7]; Anti CD3 conc. 0 μg/ml): 1.774
MTS absorbance at 490 nm ([7]; Anti CD3 conc. 0.0014 μg/ml): 1.968
MTS absorbance at 490 nm ([7]; Anti CD3 conc. 0.004 μg/ml): 1.929
MTS absorbance at 490 nm ([7]; Anti CD3 conc. 0.012 μg/ml): 1.779
MTS absorbance at 490 nm ([7]; Anti CD3 conc. 0.037 μg/ml): 1.777
MTS absorbance at 490 nm ([7]; Anti CD3 conc. 0.11 μg/ml): 1.638
MTS absorbance at 490 nm ([7]; Anti CD3 conc. 0.33 μg/ml): 1.624
MTS absorbance at 490 nm ([7]; Anti CD3 conc. 1 μg/ml): 1.459
